Assay results published in US20250145722A1 (TRUEBINDING, published 2025).

Legend:
[1] = biological target: T1, human Galectin-3 (Gal3), full-length recombinant (human, UniProt P17931 2-250); assay: Gator biosensor kinetics, antibody loaded on probe, rhGal3-His in solution, 1:1 fit
T1 construct: treated here as one molecule; also called hGAL3; hGal3
From the text: The binding affinities were characterized by fitting the kinetic sensorgrams to a monovalent binding model (1:1 binding).

[2] = biological target: T1, human Galectin-3 (Gal3), full-length …; assay: blocking ELISA, Gal3 coated, VEGFR3-Fc, antibody 20 µg/ml
Method: (§1) After incubating the plate at 4° C. overnight, the plate was washed three times with PBST. The plate was then blocked for an hour with 2% BSA in PBST at room temperature with gentle rocking. […] The respective plates were incubated for an hour at room temperature with gentle rocking. Thereafter, the plate was washed three times with PBST. Peroxidase AffiniPure F(ab′)₂ Fragment Goat Anti-Human IgG (H+L) polyclonal antibody was then added to the wells at 1:4000 dilution in 2% BSA in PBST. The plate was incubated at room temperature for an hour with gentle rocking and then washed three times with PBST. TMB substrate was then added to each well. The reaction was stopped with 1M HCl and read using a plate reader (Molecular Devices, SpectraMax M4) at absorbance of 450 nm.

[3] = biological target: T1, human Galectin-3 (Gal3), full-length …; assay: blocking ELISA, Gal3 coated, PDGFR beta-Fc, antibody 20 µg/ml
Method: as §1

[4] = biological target: T1, human Galectin-3 (Gal3), full-length …; assay: blocking ELISA, Gal3 coated, PDGFR alpha-Fc, antibody 20 µg/ml
Method: as §1

[5] = biological target: T1, human Galectin-3 (Gal3), full-length …; assay: Gator biosensor kinetics (legend: SPR), 6H6 mIgG2a loaded on probes, rhGalectin-3 as analyte, 1:1 fit
[6] = biological target: T1, human Galectin-3 (Gal3), full-length …; assay: blocking ELISA, Gal3 coated, EGFR-Fc, antibody 20 µg/ml
Method: as §1

T1 sequence (P17931 2-250 limits assumed): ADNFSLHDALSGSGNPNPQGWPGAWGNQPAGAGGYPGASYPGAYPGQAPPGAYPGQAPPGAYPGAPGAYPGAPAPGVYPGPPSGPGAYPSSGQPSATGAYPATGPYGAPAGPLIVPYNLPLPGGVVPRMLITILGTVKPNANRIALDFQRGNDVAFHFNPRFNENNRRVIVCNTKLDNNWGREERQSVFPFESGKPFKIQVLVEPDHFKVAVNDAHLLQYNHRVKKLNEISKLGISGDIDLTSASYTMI

B1: 6H6.2D6 (antibody, human IgG4 S228P, kappa, V domains shown)
VH: QIQLVQSGPELKKPGETVKISCKASGYTFTTYGMSWVKQAPGKGLKWMAWINTYSGVPTYADDFKGRFAFSLETSASTAYLQINNLTNEDTATYFCARGPYAMDYWGQGTSVTVSS
VL: DIQMTQTTSSLSASLGDRVTISCSASQGISNYLNWYQQKPDGTVKLLIYYTSSLHSGVPSRFSGSGSGTDYSLTISNLEPEDIATYYCQQYSELPYTFGSGTKLEIKR
- Kd [1]: 3.39 nM
- % blocking of Gal3-VEGFR3 binding [2]: > 70%
- % blocking of Gal3-PDGFR beta binding [3]: > 70%
- % blocking of Gal3-PDGFR alpha binding [4]: > 70%
- koff [5]: 0.000299 s⁻¹
- kon [5]: 88000 M⁻¹ s⁻¹
- % blocking of Gal3-EGFR binding [6]: > 70%
